{
  "source": "patent US12329823B2",
  "about": "(The Scripps Research Institute, priority 2021, dated 2025)",
  "key": {"[1]": {"biological_target": "human GLP-1R (Homo sapiens, UniProt P43220)", "sequence (P43220 24-463)": "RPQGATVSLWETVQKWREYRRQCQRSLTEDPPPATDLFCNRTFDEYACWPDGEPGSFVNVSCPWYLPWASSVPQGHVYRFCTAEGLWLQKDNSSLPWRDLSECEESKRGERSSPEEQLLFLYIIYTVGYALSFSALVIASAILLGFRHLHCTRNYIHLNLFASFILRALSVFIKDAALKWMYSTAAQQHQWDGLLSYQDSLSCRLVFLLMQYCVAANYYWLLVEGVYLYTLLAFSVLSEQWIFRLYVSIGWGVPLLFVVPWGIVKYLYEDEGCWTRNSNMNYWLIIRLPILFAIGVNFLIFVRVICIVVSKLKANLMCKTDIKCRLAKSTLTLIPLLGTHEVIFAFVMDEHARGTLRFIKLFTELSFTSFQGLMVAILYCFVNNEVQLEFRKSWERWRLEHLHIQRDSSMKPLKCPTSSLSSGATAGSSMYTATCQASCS", "assay": "In vitro receptor activation reporter assay (CRE-Luc, HEK293-GLP-1R-CRE cells; receptor-mediated cAMP synthesis)", "type": "cell-based", "design": "expressed in transfected cells; host or cells: HEK293 (CRE-HEK293, HEK293-GLP-1R-CRE)", "method": "(§1) HEK293 cells were infected with lentivirus encoding firefly luciferase gene under the control of cAMP responsive element (CRE) promoter (Qiagen, The Netherlands) and then were selected using 1 μg mL^−1 puromycin (Life Technologies, Carlsbad) for 1 week. The surviving cells (referred to as CRE-HEK293) were expanded and then transfected with a G418 selective mammalian expression plasmid encoding human GLP-1R or GIPR. In brief, GLP-1R or GIPR plasmid was transfected into CRE-HEK293 cells using Lipofectamine 2000 and selected with 400 μg mL^−1 Geneticin (Life Technologies, Carlsbad, CA). Single colony stable cell line overexpressing CRE-luciferase and GLP-1R or GIPR (HEK293-GLP-1R-CRE or HEK293-GIPR-CRE) was then established for in vitro activity assay.\n(§2) The EC50 of each peptide was determined using GraphPad Prism 6 software (GraphPad, San Diego, CA).\nHEK293 cells were infected with lentivirus encoding firefly luciferase gene under the control of cAMP responsive element (CRE) promoter (Qiagen, The Netherlands) and then were selected using 1 μg/mL puromycin (Life Technologies, Carlsbad) for 1 week. The surviving cells (referred to as CRE-HEK293) were expanded and then transfected with a G418 selective mammalian expression plasmid encoding human GLP-1R. In brief, GLP-1R plasmid was transfected into CRE-HEK293 cells using Lipofectamine 2000 and selected with 400 μg/mL Geneticin (Life Technologies, Carlsbad, CA). Single colony stable cell line overexpressing CRE-luciferase and GLP1R was then established for in vitro activity assay."}, "[2]": {"assay": "Acute oral glucose tolerance test (OGTT) in wild-type mice, 2 h and 96 h post injection", "type": "in vivo, mouse", "conditions": "96 h after administration; 10 nmol/kg s.c."}, "[3]": {"assay": "Pharmacokinetics in CD-1 mouse, I.V. or S.C. 1 mg/kg, plasma concentration by LC-MS;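 further: peptide levels in plasma quantified by LC-MS across multiple sampling times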", "method": "The peptide plasma concentration at various time points was determined using LC-MS."}, "[4]": {"biological_target": "T1, human GIPR (Homo sapiens, UniProt P48546)", "T1 construct": "expressed in transfected cells; host or cells: HEK293 (CRE-HEK293, HEK293-GIPR-CRE)", "T1 sequence (P48546 22-466)": "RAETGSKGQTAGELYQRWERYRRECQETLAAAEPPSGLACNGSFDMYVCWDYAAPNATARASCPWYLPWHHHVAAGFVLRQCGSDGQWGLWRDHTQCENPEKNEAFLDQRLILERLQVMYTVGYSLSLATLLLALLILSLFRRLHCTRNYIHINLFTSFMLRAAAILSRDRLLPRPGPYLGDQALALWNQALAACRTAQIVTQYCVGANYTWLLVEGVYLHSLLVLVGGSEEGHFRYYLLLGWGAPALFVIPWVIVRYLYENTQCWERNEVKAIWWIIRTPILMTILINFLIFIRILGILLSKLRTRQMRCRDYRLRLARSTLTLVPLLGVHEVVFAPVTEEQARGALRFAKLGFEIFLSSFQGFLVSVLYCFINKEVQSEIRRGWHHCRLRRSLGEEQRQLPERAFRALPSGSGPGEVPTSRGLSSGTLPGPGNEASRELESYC", "assay": "In vitro receptor activation reporter assay (CRE-Luc, HEK293-GIPR-CRE cells; receptor-mediated cAMP synthesis)", "type": "cell-based", "method": "as §1, §2"}, "[5]": {"assay": "In vivo oral glucose tolerance test (OGTT) 12 h after a single S.C. dose", "design": "species or system mouse", "conditions": "10 nmol/kg S.C.; 12 h before glucose", "procedure": "Mice were fasted overnight prior to the oral glucose tolerance test (OGTT), and then dosed with peptide. After 12 h, 1 g of glucose solution per kg body weight was administered orally, and mouse tail blood glucose levels were measured before (0 min) and after glucose challenge for 90 minutes (with measurements at 15, 30, 60 and 90 minutes) (FIG. 16). The data were compared using the unpaired Student's t test. Where appropriate, data were compared using repeated measures or one-way analysis of variance, followed by the Student-Newman-Keuls post hoc test. Calculations for […] (mg/dL*min) were also analyzed and graphed in FIG. 16. […]. […]."}},
  "note": "Where two headings read alike, the source gives them in different places.",
  "data": [
    {"compound": "CCCC[C@@H]1NC(=O)[C@H](C)NC(=O)[C@H](C)NC(=O)[C@H](CCC(N)=O)NC(=O)[C@H](CCCCN)NC(=O)[C@H](CC(=O)O)NC(=O)[C@@H](NC(=O)[C@H](Cc2ccc(O)cc2)NC(=O)[C@@H](NC(=O)[C@H](CC(=O)O)NC(=O)[C@H](Cc2ccc(O)cc2)NC(=O)[C@H](CC(=O)O)NC(=O)[C@H](CO)NC(=O)[C@H](Cc2c[nH]cn2)NC(=O)[C@H](Cc2ccccc2)NC(=O)[C@@H](NC(=O)CNC(=O)[C@H](CCC(=O)O)NC(=O)C(C)(C)NC(=O)[C@@H](N)Cc2ccc(O)cc2)[C@@H](C)O)[C@@H](C)CC)CCCCNC(=O)CN(C(=O)CCNC(=O)CCOCCOCCNC(=O)CCOCCOCCNC(=O)CC[C@H](NC(=O)CCCCCCCCCCCCCCCCC(=O)O)C(=O)O)CC(=O)NCCCC[C@@H](C(=O)N[C@@H](Cc2ccccc2)C(=O)N[C@H](C(=O)N[C@@H](C)C(=O)N[C@@H](Cc2c[nH]c3ccccc23)C(=O)N[C@@H](CC(C)C)C(=O)N[C@@H](CC(C)C)C(=O)N[C@@H](C)C(=O)NCC(=O)NCC(=O)N2CCC[C@H]2C(=O)N[C@@H](CO)C(=O)N[C@@H](CO)C(=O)NCC(=O)N[C@@H](C)C(=O)N2CCC[C@H]2C(=O)N2CCC[C@H]2C(=O)N2CCC[C@H]2C(=O)N[C@@H](CO)C(N)=O)C(C)C)NC1=O", "note": "[ZA-42 - K5, YAibEGT-FHSDY-DIYXD-KQAANle-XFVAW-LLAGG-PSSGA-PPPS-NH2 (where each X is K) (SEQ ID NO: 47)]", "values": [
      {"measurement": "EC50", "setting": "[1]; Table 7, read-out: EC50 GLP1R", "result": "~13700", "unit": "nM"}
    ]},
    {"compound": "CC[C@H](C)[C@H](NC(=O)[C@H](CO)NC(=O)[C@H](Cc1ccc(O)cc1)NC(=O)[C@H](CC(=O)O)NC(=O)[C@H](CO)NC(=O)[C@@H](NC(=O)[C@H](Cc1ccccc1)NC(=O)[C@@H](NC(=O)CNC(=O)[C@H](CCC(=O)O)NC(=O)C(C)(C)NC(=O)[C@@H](N)Cc1ccc(O)cc1)[C@@H](C)O)[C@@H](C)O)C(=O)N[C@@H](Cc1ccc(O)cc1)C(=O)N[C@H]1CCCCNC(=O)CN(C(=O)CCNC(=O)CCOCCOCCNC(=O)CCOCCOCCNC(=O)CC[C@H](NC(=O)CCCCCCCCCCCCCCCCC(=O)O)C(=O)O)CC(=O)NCCCC[C@@H](C(=O)N[C@@H](Cc2ccccc2)C(=O)N[C@H](C(=O)N[C@@H](CC(N)=O)C(=O)N[C@@H](Cc2c[nH]c3ccccc23)C(=O)N[C@@H](CC(C)C)C(=O)N[C@@H](CC(C)C)C(=O)N[C@@H](C)C(=O)NCC(=O)NCC(=O)N2CCC[C@H]2C(=O)N[C@@H](CO)C(=O)N[C@@H](CO)C(=O)NCC(=O)N[C@@H](C)C(=O)N2CCC[C@H]2C(=O)N2CCC[C@H]2C(=O)N2CCC[C@H]2C(=O)N[C@@H](CO)C(N)=O)C(C)C)NC(=O)C(C)(C)NC(=O)[C@H](C)NC(=O)[C@H](C)NC(=O)[C@H](CCC(N)=O)NC(=O)[C@H](CCCCN)NC(=O)[C@H](CC(=O)O)NC1=O", "note": "[mCLZ715, YAibEGT-FTSDY-SIYXD-KQAAAib-XFVNW-LLAGG-PSSGA-PPPS-NH2 (where each X is K) (SEQ ID NO: 40)]", "values": [
      {"measurement": "fasted glucose levels", "setting": "[2]", "result": "significantly reduce fasted glucose levels"},
      {"measurement": "glucose handling (OGTT) versus vehicle", "setting": "[2]", "result": "more significant improvements in handling glucose"}
    ]},
    {"compound": "CC[C@H](C)[C@H](NC(=O)[C@H](CC(C)C)NC(=O)[C@H](Cc1c[nH]c2ccccc12)NC(=O)[C@H](CC(N)=O)NC(=O)[C@@H](NC(=O)[C@H](Cc1ccccc1)NC(=O)[C@@H]1CSCC(=O)NCCN(C(=O)CCC(=O)NCCOCCOCCC(=O)NCCOCCOCCC(=O)NCCCC[C@H](NC(=O)CCCCCCCCCCCCCCCCCCC(=O)O)C(=O)O)CCNC(=O)CSC[C@H](NC(=O)[C@H](Cc2ccc(O)cc2)NC(=O)[C@@H](NC(=O)[C@H](CO)NC(=O)[C@H](Cc2ccc(O)cc2)NC(=O)[C@H](CC(=O)O)NC(=O)[C@H](CO)NC(=O)[C@@H](NC(=O)[C@H](Cc2ccccc2)NC(=O)[C@@H](NC(=O)CNC(=O)[C@H](CCC(=O)O)NC(=O)C(C)(C)NC(=O)[C@@H](N)Cc2ccc(O)cc2)[C@@H](C)O)[C@@H](C)O)[C@@H](C)CC)C(=O)N[C@@H](CC(=O)O)C(=O)N[C@@H](CCCCN)C(=O)N[C@@H](CCC(N)=O)C(=O)N[C@@H](C)C(=O)N[C@@H](C)C(=O)NC(C)(C)C(=O)N1)C(C)C)C(=O)N[C@@H](C)C(=O)NCC(=O)NCC(=O)N1CCC[C@H]1C(=O)N[C@@H](CO)C(=O)N[C@@H](CO)C(=O)NCC(=O)N[C@@H](C)C(=O)N1CCC[C@H]1C(=O)N1CCC[C@H]1C(=O)N1CCC[C@H]1C(=O)N[C@@H](CO)C(N)=O", "note": "[mCMV266, YAibEGT-FTSDY-SIYXD-KQAAAib-XFVNW-LIAGG-PSSGA-PPPS-NH2 (where each X is C) (SEQ ID NO: 52)]", "values": [
      {"measurement": "bioavailability", "setting": "[3]; CD-1, mouse, in vivo, sc, 1 mg/kg", "result": 63, "unit": "%"},
      {"measurement": "Cl", "setting": "[3]; Table 14, SC 1 mg/kg", "result": 4.02, "unit": "mL/h/kg"},
      {"measurement": "Vd", "setting": "[3]; Table 14, SC 1 mg/kg", "result": 0.063, "unit": "L/kg"},
      {"measurement": "AUC(0-inf)", "setting": "[3]; mouse, in vivo, iv, 1 mg/kg", "result": 397, "unit": "µg·h/mL"},
      {"measurement": "Cmax", "setting": "[3]; mouse, in vivo, iv, 1 mg/kg", "result": 30400, "unit": "ng/mL"},
      {"measurement": "MRT last", "setting": "[3]; mouse, in vivo, iv, 1 mg/kg", "result": 18.6, "unit": "h"},
      {"measurement": "Tmax", "setting": "[3]; mouse, in vivo, iv, 1 mg/kg", "result": 0.5, "unit": "h"},
      {"measurement": "Vd", "setting": "[3]; mouse, in vivo, iv, 1 mg/kg", "result": 0.043, "unit": "L/kg"},
      {"measurement": "clearance", "setting": "[3]; mouse, in vivo, iv, 1 mg/kg", "result": 2.58, "unit": "mL/h/kg"},
      {"measurement": "half-life", "setting": "[3]; mouse, in vivo, iv, 1 mg/kg", "result": 11.5, "unit": "h"},
      {"measurement": "AUC(0-t)", "setting": "[3]; mouse, in vivo, iv, 1 mg/kg, AUC0-24, Table 14, IV 1 mg/kg", "result": 269, "unit": "µg·h/mL"},
      {"measurement": "AUC(0-t)", "setting": "[3]; mouse, in vivo, iv, 1 mg/kg, AUCLAST, Table 14, IV 1 mg/kg", "result": 390, "unit": "µg·h/mL"},
      {"measurement": "AUC(0-inf)", "setting": "[3]; mouse, in vivo, sc, 1 mg/kg", "result": 252, "unit": "µg·h/mL"},
      {"measurement": "Cmax", "setting": "[3]; mouse, in vivo, sc, 1 mg/kg", "result": 6610, "unit": "ng/mL"},
      {"measurement": "MRT last", "setting": "[3]; mouse, in vivo, sc, 1 mg/kg", "result": 24.3, "unit": "h"},
      {"measurement": "Tmax", "setting": "[3]; mouse, in vivo, sc, 1 mg/kg", "result": 12.7, "unit": "h"},
      {"measurement": "half-life", "setting": "[3]; mouse, in vivo, sc, 1 mg/kg", "result": 10.7, "unit": "h"},
      {"measurement": "AUC(0-t)", "setting": "[3]; mouse, in vivo, sc, 1 mg/kg, AUC0-24, Table 14, SC 1 mg/kg", "result": 135, "unit": "µg·h/mL"},
      {"measurement": "AUC(0-t)", "setting": "[3]; mouse, in vivo, sc, 1 mg/kg, AUCLAST, Table 14, SC 1 mg/kg", "result": 247, "unit": "µg·h/mL"},
      {"measurement": "EC50", "setting": "[4]; EC50 GIPR 02/19, unnumbered table, run 02/19", "result": 0.08, "unit": "nM"},
      {"measurement": "EC50", "setting": "[4]; EC50 GIPR 03/25, unnumbered table, run 03/25", "result": 0.06, "unit": "nM"},
      {"measurement": "EC50", "setting": "[4]; EC50 GIPR 03/26, unnumbered table, run 03/26", "result": 0.06, "unit": "nM"},
      {"measurement": "EC50", "setting": "[4]; EC50 GIPR, Table 8", "result": 0.07, "unit": "nM"},
      {"measurement": "EC50", "setting": "[4]; unnumbered table, average of runs, read-out: EC50 GIPR average", "result": 0.07, "unit": "nM"},
      {"measurement": "EC50", "setting": "[1]; EC50 GLP1R 02/19, unnumbered table, run 02/19", "result": 0.03, "unit": "nM"},
      {"measurement": "EC50", "setting": "[1]; EC50 GLP1R 3/25, unnumbered table, run 3/25", "result": 0.05, "unit": "nM"},
      {"measurement": "EC50", "setting": "[1]; EC50 GLP1R 03/26, unnumbered table, run 03/26", "result": 0.06, "unit": "nM"},
      {"measurement": "EC50", "setting": "[1]; EC50 GLP1R, Table 8", "result": 0.05, "unit": "nM"},
      {"measurement": "EC50", "setting": "[1]; unnumbered table, average of runs, read-out: EC50 GLP1R average", "result": 0.05, "unit": "nM"}
    ]},
    {"compound": "Semaglutide [reference compound]", "values": [
      {"measurement": "glucose handling (OGTT) versus vehicle", "setting": "[2]", "result": "did not exhibit any improvement over the vehicle"},
      {"measurement": "effects on glucose tolerance", "setting": "[5]", "result": "indistinguishable effects on glucose tolerance"}
    ]}
  ]
}
